Assay results taken from the Immune Epitope Database (IEDB).

Experiments:
HLA-C*03:03 = test: IEDB peptide-MHC binding, purified MHC/direct/fluorescence; filed as Kd, often an IC50 or EC50 that approximates it; ≥ and ≤ were set here for values at or beyond the usual limits of such assays
HLA-C*08:02 = test: as above
HLA-C*12:03 = test: as above
HLA-C*04:01 = test: as above
HLA-B*46:01 [1] = test: IEDB peptide-MHC binding, purified MHC/competitive/fluorescence; filed as Kd, often an IC50 or EC50 that approximates it; ≥ and ≤ were set here for values at or beyond the usual limits of such assays; conditions: source organism: Escherichia coli 536
HLA-C*06:02 = test: IEDB peptide-MHC binding, purified MHC/direct/fluorescence; filed as Kd, often an IC50 or EC50 that approximates it; ≥ and ≤ were set here for values at or beyond the usual limits of such assays; conditions: source organism: Influenza A virus (A/swine/Italy/1509-6/97(H1N1))
HLA-C*14:02 = test: as above; conditions: source organism: Influenza A virus (A/swine/Italy/1509-6/97(H1N1))
HLA-B*07:02 = test: IEDB peptide-MHC binding, purified MHC/competitive/fluorescence; filed as Kd, often an IC50 or EC50 that approximates it; ≥ and ≤ were set here for values at or beyond the usual limits of such assays; conditions: source organism: Influenza A virus (A/swine/Italy/1509-6/97(H1N1))
HLA-A*26:01 = test: IEDB peptide-MHC binding, purified MHC/direct/fluorescence; filed as Kd, often an IC50 or EC50 that approximates it; ≥ and ≤ were set here for values at or beyond the usual limits of such assays; conditions: source organism: Influenza A virus (A/chicken/Beijing/nl/2002(H9N2))
HLA-A*26:02 = test: as above; conditions: source organism: Influenza A virus(A/swine/Shandong/fNY/2003(H9N2))
HLA-A*01:01 = test: as above; conditions: source organism: Bacillus anthracis
HLA-A*02:01 = test: as above; conditions: source organism: Bacillus anthracis
HLA-A*03:01 = test: as above; conditions: source organism: Bacillus anthracis
HLA-A*31:01 = test: as above; conditions: source organism: Bacillus anthracis
HLA-A*69:01 = test: as above
HLA-B*15:01 = test: as above; conditions: source organism: Bacillus anthracis
HLA-B*15:17 = test: as above; conditions: source organism: Bacillus anthracis
HLA-B*18:01 = test: as above; conditions: source organism: Bacillus anthracis
HLA-B*40:01 = test: as above; conditions: source organism: Bacillus anthracis
HLA-B*46:01 [2] = test: as above; conditions: source organism: Bacillus anthracis
HLA-B*48:01 = test: as above; conditions: source organism: Bacillus anthracis
HLA-B*51:01 = test: as above; conditions: source organism: Bacillus anthracis
HLA-B*57:01 = test: as above; conditions: source organism: Bacillus anthracis
HLA-B*58:01 = test: as above; conditions: source organism: Bacillus anthracis
HLA-A*11:01 = test: IEDB peptide-MHC binding, purified MHC/competitive/fluorescence; filed as Kd, often an IC50 or EC50 that approximates it; ≥ and ≤ were set here for values at or beyond the usual limits of such assays; conditions: source organism: Escherichia coli APEC O1
HLA-B*27:05 = test: as above; conditions: source organism: Escherichia coli APEC O1
HLA-A*29:02 = test: as above; conditions: source organism: Bacillus anthracis str. A0488
HLA-A*24:03 = test: IEDB peptide-MHC binding, purified MHC/direct/fluorescence; filed as Kd, often an IC50 or EC50 that approximates it; ≥ and ≤ were set here for values at or beyond the usual limits of such assays; conditions: source organism: Mycobacterium tuberculosis
HLA-C*05:01 = test: as above; conditions: source organism: Variola virus
HLA-A*02:02 = test: IEDB peptide-MHC binding, purified MHC/competitive/radioactivity; filed as Kd, often an IC50 or EC50 that approximates it; ≥ and ≤ were set here for values at or beyond the usual limits of such assays; conditions: source organism: Vaccinia virus WR
HLA-A*02:03 = test: as above; conditions: source organism: Vaccinia virus WR
HLA-A*02:06 = test: as above; conditions: source organism: Vaccinia virus WR
[3] = source organism: Yellow fever virus
[4] = source organism: Escherichia coli 536

Sequence: YMPDVLEKL
- Kd (HLA-C*03:03; [3]): ≥ 20000 nM
- Kd (HLA-C*08:02; [3]): ≥ 20000 nM
- Kd (HLA-C*12:03; [3]): ≥ 20000 nM

Sequence: FMFDSDEAM
- Kd (HLA-C*03:03; [4]): 5 nM
- Kd (HLA-C*04:01; [4]): ≥ 20000 nM
- Kd (HLA-C*12:03; [4]): 174 nM
- Kd (HLA-B*46:01 [1]): 29.2 nM

Sequence: ATYQRTRAL
- Kd (HLA-C*06:02): 75 nM
- Kd (HLA-C*14:02): 246 nM
- Kd (HLA-B*07:02): 197 nM

Sequence: TTVDHMAII
- Kd (HLA-A*26:01): 67.8 nM
- Kd (HLA-A*26:02): 12 nM

Sequence: TPRIANRLL
- Kd (HLA-A*01:01): ≥ 20000 nM
- Kd (HLA-A*02:01): ≥ 20000 nM
- Kd (HLA-A*03:01): ≥ 20000 nM
- Kd (HLA-A*31:01): ≥ 20000 nM
- Kd (HLA-A*69:01; source organism: Bacillus anthracis): ≥ 20000 nM
- Kd (HLA-B*15:01): ≥ 20000 nM
- Kd (HLA-B*15:17): ≥ 20000 nM
- Kd (HLA-B*18:01): ≥ 20000 nM
- Kd (HLA-B*40:01): ≥ 20000 nM
- Kd (HLA-B*46:01 [2]): ≥ 20000 nM
- Kd (HLA-B*48:01): ≥ 20000 nM
- Kd (HLA-B*51:01): ≥ 20000 nM
- Kd (HLA-B*57:01): ≥ 20000 nM
- Kd (HLA-B*58:01): ≥ 20000 nM
- Kd (HLA-A*11:01): 1370 nM
- Kd (HLA-B*27:05): ≥ 20000 nM

Sequence: YTVQGAGLM
- Kd (HLA-C*08:02; source organism: Bacillus anthracis str. A0488): ≥ 20000 nM
- Kd (HLA-A*29:02): 26 nM

Sequence: YYIIETEHL
- Kd (HLA-A*24:03): 0.2 nM
- Kd (HLA-C*04:01; source organism: Mycobacterium tuberculosis H37Ra): ≥ 20000 nM

Sequence: KVDDTFYYV
- Kd (HLA-A*69:01; source organism: Camelpox virus CMS): 2 nM
- Kd (HLA-C*03:03; source organism: Variola virus): ≥ 20000 nM
- Kd (HLA-C*05:01): 3 nM
- Kd (HLA-A*02:02): 1850 nM
- Kd (HLA-A*02:03): ≥ 78100 nM
- Kd (HLA-A*02:06): ≥ 34300 nM
